Consider one molecule from patent US20210332145A1 (SINGLE CELL TECHNOLOGY, published 2021).

This assay has as its target T1, BCMA on cells (293T cells transfected with BCMA; H929, MM.1S and U266 cell lines expressing BCMA) (human, UniProt Q02223 1-184).
T1 construct: H929, MM.1S and U266 carry the native protein; also called B-cell Maturation Antigen; TNFRSF17
T1 sequence: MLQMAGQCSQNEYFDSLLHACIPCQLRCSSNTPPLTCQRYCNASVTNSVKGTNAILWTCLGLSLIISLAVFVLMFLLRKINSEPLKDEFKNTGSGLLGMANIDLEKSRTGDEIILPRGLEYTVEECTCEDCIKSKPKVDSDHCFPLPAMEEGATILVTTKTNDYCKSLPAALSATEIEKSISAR
The assay can be described thus: flow cytometry, 293T cells transfected with BCMA. Background: Flow cytometry measures light scatter and fluorescence of single cells or particles in a stream.

B1: SCT-Aa02 (antibody, V domains shown)
VH: EVKLLQSGGGLVQPGGSLKLSCAASGIDFSRYWMSWVRRAPGKGLEWIGEINPDSSTINSAPSLEDKFIISRDNAKNTLYLQMSKVRSEDTALYYCASLYYDYERDYAMDYWGQGASVTVSS
VL: DIVMTQSQKFMSTSVGDRVSVTCKASQNVGTNVAWYQQKPGQSPKALIYSASYRFSGVPDRFTGSGSGTDFTLTISNVQSEDLAEYFCQQYHSYPFTFGGGTKLEIK
As to B1, the binding result is reported as “binds”.
